Patent US20250011747

Test system: LMWK (natural substrate of KLK1)

Sequence of PEG-Kb (pancreatic kallikrein I for injection, PEG10K-modified Kb) (chain, as listed by the source): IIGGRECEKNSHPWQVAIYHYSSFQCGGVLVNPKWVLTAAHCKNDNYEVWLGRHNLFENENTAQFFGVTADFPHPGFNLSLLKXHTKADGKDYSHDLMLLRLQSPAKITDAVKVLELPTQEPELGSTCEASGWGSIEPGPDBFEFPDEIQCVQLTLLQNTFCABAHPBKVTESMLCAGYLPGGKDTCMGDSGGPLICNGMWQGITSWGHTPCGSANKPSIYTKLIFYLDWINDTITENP
Sequence of Kb (KLK1 extracted from porcine pancreas) (chain, as listed by the source): as above

## PEG-Kb (pancreatic kallikrein I for injection, PEG10K-modified Kb)
  Bradykinin production µg/mg(enzyme), molar ratio of substrate to enzyme 1:1 (µg/mg(enzyme)): 11.3
  Bradykinin production µg/mg(enzyme), molar ratio of substrate to enzyme 5:1 (µg/mg(enzyme)): 44.6
  Bradykinin production µg/mg(enzyme), molar ratio of substrate to enzyme 10:1 (µg/mg(enzyme)): 80
  Bradykinin production µg/mg(enzyme), molar ratio of substrate to enzyme 15:1 (µg/mg(enzyme)): 104
  Bradykinin production µg/mg(enzyme), molar ratio of substrate to enzyme 20:1 (µg/mg(enzyme)): 120

## Kb (KLK1 extracted from porcine pancreas)
  Bradykinin production µg/mg(enzyme), molar ratio of substrate to enzyme 1:1 (µg/mg(enzyme)): 20.9
  Bradykinin production µg/mg(enzyme), molar ratio of substrate to enzyme 5:1 (µg/mg(enzyme)): 90.8
  Bradykinin production µg/mg(enzyme), molar ratio of substrate to enzyme 10:1 (µg/mg(enzyme)): 166
  Bradykinin production µg/mg(enzyme), molar ratio of substrate to enzyme 15:1 (µg/mg(enzyme)): 218
  Bradykinin production µg/mg(enzyme), molar ratio of substrate to enzyme 20:1 (µg/mg(enzyme)): 288
